target: acetylcholine receptor; experiment: SPR, AchR immobilised on chip, peptide at 10 uM

Binder	Binding affinity (RU)	Binding affinity	SPR binding response
RQVRK [5mer-274]	62 RU	–	–
KLLRK [5mer-254]	87 RU	–	–
KGYQR [5mer-272]	83 RU	–	–
KQRTR [5mer-255]	82 RU	–	–
RRVLR [5mer-261]	59 RU	–	–
KRQYK [5mer-258]	84 RU	–	–
KWITK [5mer-549]	–	–	78 RU
KQYRK [5mer-252]	53 RU	–	–
RLYSR [5mer-552]	63 RU	–	–
RVIYK [5mer-556]	52 RU	–	–
RSLYR [5mer-253]	75 RU	–	–
KVYTR [5mer-275]	64 RU	–	–
RGVCK [5mer-256]	60 RU	–	–
KLLSR [5mer-553]	72 RU	–	–
RSYCR [5mer-249]	52 RU	–	–
RGRYR [5mer-271]	68 RU	–	–
RSQQR [5mer-270]	52 RU	–	–
KWILK [5mer-280]	53 RU	–	–
RVVTK [5mer-279]	56 RU	–	–
RWQYR [5mer-551]	59 RU	–	–
RQFTR [5mer-257]	85 RU	–	–

Binder	Binding affinity (RU)	Binding affinity	SPR binding response
KVQCK [5mer-555]	71 RU	–	–
RLLSK [5mer-554]	65 RU	–	–
RQQSR [5mer-550]	83 RU	–	–
RQFSR [5mer-250]	76 RU	–	–
KSRCR [5mer-262]	59 RU	–	–
RWQRR [5mer-278]	66 RU	–	–
KQVTR [5mer-263]	80 RU	–	–
KSYQK [5mer-266]	66 RU	–	–
RWQCR [5mer-265]	77 RU	–	–
KWYRK [5mer-264]	50 RU	–	–
RLFLR [5mer-269]	85 RU	–	–
RVQSK [5mer-273]	82 RU	–	–
RLIRK [5mer-259]	71 RU	–	–
KQRRK [5mer-557]	87 RU	–	–
RVFTR [5mer-277]	82 RU	–	–
KRISK [5mer-251]	70 RU	–	–
KVYRR [5mer-260]	57 RU	–	–
KRYCK [5mer-268]	54 RU	–	–
RSLRR [5mer-276]	70 RU	–	–
KRLLK [5mer-267]	66 RU	–	–

Second part, the binder after the results:

Binding affinity (RU)	Binding affinity	SPR binding response	Binder
–	148 RU	–	RRYSRR [6mer-2-322]
84 RU	–	–	RSIYR [5mer-573]
–	131 RU	–	KRYQRK [6mer-2-328]
–	146 RU	–	KVILRR [6mer-2-334]
70 RU	–	–	RGYTR [5mer-580]
72 RU	–	–	KWRCK [5mer-561]
84 RU	–	–	RWRYK [5mer-558]
63 RU	–	–	RRYCK [5mer-567]
–	139 RU	–	KRFRRK [6mer-2-333]
53 RU	–	–	RSLYK [5mer-579]
81 RU	–	–	KQQLK [5mer-559]
51 RU	–	–	RRLTK [5mer-571]
–	139 RU	–	KLVSRK [6mer-2-321]
–	145 RU	–	KVLLRK [6mer-2-323]
60 RU	–	–	RLVLK [5mer-563]
65 RU	–	–	KSVLR [5mer-578]
58 RU	–	–	KLRTK [5mer-572]
–	142 RU	–	RGFYKK [6mer-2-326]
56 RU	–	–	KLVRR [5mer-570]
74 RU	–	–	RSRYR [5mer-564]

Binding affinity (RU)	Binding affinity	SPR binding response	Binder
64 RU	–	–	KQITR [5mer-568]
78 RU	–	–	KQLYK [5mer-566]
–	139 RU	–	KQLRKK [6mer-2-330]
–	148 RU	–	RWVSKK [6mer-2-331]
79 RU	–	–	RQQRK [5mer-569]
–	142 RU	–	RVYTKR [6mer-2-329]
70 RU	–	–	RVRQR [5mer-562]
–	148 RU	–	RQYRRK [6mer-2-320]
–	153 RU	–	KGLRKR [6mer-2-327]
77 RU	–	–	RLVSK [5mer-565]
–	142 RU	–	RVFSRK [6mer-2-325]
69 RU	–	–	KGFYR [5mer-575]
–	137 RU	–	RSRQRK [6mer-2-319]
62 RU	–	–	RLFRK [5mer-576]
59 RU	–	–	KWYQR [5mer-560]
–	139 RU	–	KLQSRK [6mer-2-324]
77 RU	–	–	KLVTK [5mer-577]
–	145 RU	–	RRQYKK [6mer-2-332]
59 RU	–	–	KGFTR [5mer-574]
